Consider 94 variants from the supplement of paper PMC10567573.

To fix the notation:
B1: SMG5 (parent)
chain: TRKLSPGKKRCKDIKRLLVNFMYL
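Note: lentivirally expressed fusions sorted by FACS into six bins by GFP to DsRed ratio, PSI derived from sequencing read proportions per bin multiplied by bin number.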

The data set covers variants of B1. Nature of the data set: protein stability index of a GFP-peptide fusion (GPS, HEK-293T) (PSI 1-6); higher = more stable. To be noted: c terminus: a fixed tail appended.
In the case of TRKLSPGKKRCKCIKRLLVNFMYL [D13C], the protein stability index is 1.84.

Turning to TRKLSPGKKRCKRIKRLLVNFMYL [D13R], the protein stability index stood at 1.71. On to TRKLSPGKKRCKIIKRLLVNFMYL [D13I], for which the protein stability index was found to be 3.25. With TRKLFPGKKRCKDIKRLLVNFMYL [S5F], the protein stability index is 4.07. Take TRKLGPGKKRCKDIKRLLVNFMYL [S5G]: the protein stability index is 2.7. Take TRKLKPGKKRCKDIKRLLVNFMYL [S5K]: the protein stability index came to 4.05. On to TRKLDPGKKRCKDIKRLLVNFMYL [S5D], for which the protein stability index was 2.41.

For TRKLQPGKKRCKDIKRLLVNFMYL [S5Q], the protein stability index worked out at 2.62. To TRKLPPGKKRCKDIKRLLVNFMYL [S5P] belongs 2.54; to TRKLTPGKKRCKDIKRLLVNFMYL [S5T], 1.02; to TRKLLPGKKRCKDIKRLLVNFMYL [S5L], 1.55.

As for TNKLSPGKKRCKDIKRLLVNFMYL [R2N], the protein stability index is 1.94. For TMKLSPGKKRCKDIKRLLVNFMYL [R2M], the protein stability index came to 3. As for TQKLSPGKKRCKDIKRLLVNFMYL [R2Q], the protein stability index came out at 1.59. For TTKLSPGKKRCKDIKRLLVNFMYL [R2T], the protein stability index was found to be 2.24. As for TSKLSPGKKRCKDIKRLLVNFMYL [R2S], the protein stability index worked out at 2.78. On to TPKLSPGKKRCKDIKRLLVNFMYL [R2P], for which the protein stability index was 2.76.

On to TIKLSPGKKRCKDIKRLLVNFMYL [R2I], for which the protein stability index was 3.09.

Consider TEKLSPGKKRCKDIKRLLVNFMYL [R2E], for which the protein stability index is 1.04. On to TAKLSPGKKRCKDIKRLLVNFMYL [R2A], for which the protein stability index came to 2.29. The result for TVKLSPGKKRCKDIKRLLVNFMYL [R2V] reads 2.98; that for THKLSPGKKRCKDIKRLLVNFMYL [R2H], 1.38; that for TCKLSPGKKRCKDIKRLLVNFMYL [R2C], 2.19. To TFKLSPGKKRCKDIKRLLVNFMYL [R2F] belongs 3.38; to TYKLSPGKKRCKDIKRLLVNFMYL [R2Y], 4.16; to TRSLSPGKKRCKDIKRLLVNFMYL [K3S], 1.59.

TRLLSPGKKRCKDIKRLLVNFMYL [K3L]: the protein stability index turned out to be 1.85. The result for TRMLSPGKKRCKDIKRLLVNFMYL [K3M] reads 2.94; that for TRVLSPGKKRCKDIKRLLVNFMYL [K3V], 3.52; that for TRTLSPGKKRCKDIKRLLVNFMYL [K3T], 1.66.

Regarding TRFLSPGKKRCKDIKRLLVNFMYL [K3F], the protein stability index stood at 2.44.

Turning to TRCLSPGKKRCKDIKRLLVNFMYL [K3C], the protein stability index worked out at 2.31.

Regarding TRELSPGKKRCKDIKRLLVNFMYL [K3E], the protein stability index worked out at 2.41. For the variant TRALSPGKKRCKDIKRLLVNFMYL [K3A], the protein stability index came out at 2.18. With TRPLSPGKKRCKDIKRLLVNFMYL [K3P], the protein stability index came out at 2.52.

With TRGLSPGKKRCKDIKRLLVNFMYL [K3G], the protein stability index came to 3.74. To TRWLSPGKKRCKDIKRLLVNFMYL [K3W] belongs 1.86; to TRNLSPGKKRCKDIKRLLVNFMYL [K3N], 2.16. The result for TRILSPGKKRCKDIKRLLVNFMYL [K3I] reads 2.34; that for TRKGSPGKKRCKDIKRLLVNFMYL [L4G], 1.36; that for TRKRSPGKKRCKDIKRLLVNFMYL [L4R], 1.15. For TRKKSPGKKRCKDIKRLLVNFMYL [L4K], the protein stability index was 2.07. Consider TRKQSPGKKRCKDIKRLLVNFMYL [L4Q], for which the protein stability index was 2.06.

In the case of TRKASPGKKRCKDIKRLLVNFMYL [L4A], the protein stability index was 1.76. For TRKTSPGKKRCKDIKRLLVNFMYL [L4T], the protein stability index is 1.62. As to TRKHSPGKKRCKDIKRLLVNFMYL [L4H], the protein stability index turned out to be 2.64. Turning to TRKYSPGKKRCKDIKRLLVNFMYL [L4Y], the protein stability index stood at 2.63.

With TRKSSPGKKRCKDIKRLLVNFMYL [L4S], the protein stability index worked out at 1.47.

Turning to TRKDSPGKKRCKDIKRLLVNFMYL [L4D], the protein stability index came out at 1.33. For TRKNSPGKKRCKDIKRLLVNFMYL [L4N], the protein stability index came to 1.22. For TRKCSPGKKRCKDIKRLLVNFMYL [L4C], the protein stability index was 2.54.

Take TRKISPGKKRCKDIKRLLVNFMYL [L4I]: the protein stability index was determined as 3.12. Regarding TRKPSPGKKRCKDIKRLLVNFMYL [L4P], the protein stability index worked out at 2.58. For TRKLSPGKKRCKDRKRLLVNFMYL [I14R], the protein stability index is 2.19. For the variant TRKLSPGKKRCKDDKRLLVNFMYL [I14D], the protein stability index came out at 1.56. With TRKLSPGKKRCKDPKRLLVNFMYL [I14P], the protein stability index amounted to 3.95. With TRKLSPGKKRCKDFKRLLVNFMYL [I14F], the protein stability index amounted to 2.36.

On to TRKLSPGKKRCKDHKRLLVNFMYL [I14H], for which the protein stability index stood at 2.23. The result for TRKLSPGKKRCKDSKRLLVNFMYL [I14S] reads 2.53; that for TRKLSPGKKRCKDEKRLLVNFMYL [I14E], 1.32; that for TRKLSPGKKRCKDGKRLLVNFMYL [I14G], 1.18. To TRKLSPGKKRCKDLKRLLVNFMYL [I14L] belongs 2.27; to TRKLSPGKKRCKDNKRLLVNFMYL [I14N], 1.45; to TRKLSPGKKRCKDQKRLLVNFMYL [I14Q], 1.5.

For the variant TRKLSPGKKRCKDCKRLLVNFMYL [I14C], the protein stability index was found to be 3.55. The result for TRKLSPGKKRCKDKKRLLVNFMYL [I14K] reads 1.19; that for TRKLSPGKKRCKDMKRLLVNFMYL [I14M], 2.34; that for TRKLSPGKKRCKDTKRLLVNFMYL [I14T], 2.05.

Regarding TRKLSPGKKRCKDAKRLLVNFMYL [I14A], the protein stability index came to 2.13. For TRKLSPGWKRCKDIKRLLVNFMYL [K8W], the protein stability index was 2.79. For TRKLSPGHKRCKDIKRLLVNFMYL [K8H], the protein stability index is 3.49. Consider TRKLSPGRKRCKDIKRLLVNFMYL [K8R], for which the protein stability index stood at 2.2.

As to TRKLSPGNKRCKDIKRLLVNFMYL [K8N], the protein stability index was determined as 1.74. With TRKLSPGGKRCKDIKRLLVNFMYL [K8G], the protein stability index is 1.05. The result for TRKLSPGTKRCKDIKRLLVNFMYL [K8T] reads 2.64; that for TRKLSPGCKRCKDIKRLLVNFMYL [K8C], 3.19. With TRKLSPGEKRCKDIKRLLVNFMYL [K8E], the protein stability index came to 3.52. TRKLSPGSKRCKDIKRLLVNFMYL [K8S]: the protein stability index is 1.98.

TRKLSPGLKRCKDIKRLLVNFMYL [K8L]: the protein stability index is 2.75. As to TRKLSPGFKRCKDIKRLLVNFMYL [K8F], the protein stability index amounted to 4.35. As for TRKLSPSKKRCKDIKRLLVNFMYL [G7S], the protein stability index worked out at 2.17. For TRKLSPMKKRCKDIKRLLVNFMYL [G7M], the protein stability index worked out at 3.1. In the case of TRKLSPPKKRCKDIKRLLVNFMYL [G7P], the protein stability index is 1.96. As for TRKLSPKKKRCKDIKRLLVNFMYL [G7K], the protein stability index is 3.32.

On to TRKLSPLKKRCKDIKRLLVNFMYL [G7L], for which the protein stability index was determined as 4.07. To TRKLSPTKKRCKDIKRLLVNFMYL [G7T] belongs 2.22; to TRKLSPVKKRCKDIKRLLVNFMYL [G7V], 2.47.

In the case of TRKLSPEKKRCKDIKRLLVNFMYL [G7E], the protein stability index worked out at 1.97. As to TRKLSPQKKRCKDIKRLLVNFMYL [G7Q], the protein stability index came out at 1.86. As to TRKLSPNKKRCKDIKRLLVNFMYL [G7N], the protein stability index worked out at 2.08. TRKLSPRKKRCKDIKRLLVNFMYL [G7R]: the protein stability index amounted to 2.47. The result for TRKLSPAKKRCKDIKRLLVNFMYL [G7A] reads 2.87; that for TRKLSPIKKRCKDIKRLLVNFMYL [G7I], 2.87; that for TRKLSPFKKRCKDIKRLLVNFMYL [G7F], 2.24.
